Tests used:
KU70/80;DNA-PKcs;TRF2 = KU70/80;DNA-PKcs;TRF2 (human;human;human, UniProt P12956;P13010;P78527;Q15554 1-609;1-732;1-4128;1-542, ||); assay: KU pull-down; TRF2 association with KU mediated by template DNA; Footprinting: 25 mM HEPES pH 7.6, 80 mM KCl, 1.5 mM CaCl2, 1.5 mM MgCl2, 5% glycerol, 50 ug/ml BSA, 2 mM DTT, ice then 37 C (EMSA same buffer, 37 C); pull-down: 20 mM HEPES pH 7.6, 80 mM KCl, 5% glycerol, 0.01% NP-40, 1 mM DTT, 30 C; cryo-EM: 40 mM HEPES pH 7.6, 100 mM NaCl, 3 mM MgCl2, 4 C; conditions: protein: recombinant;native;recombinant; tags: FLAG (KU70 N-terminal);;dual strep; copies: 1;1;1;2; blunt
KU70/80;DNA-PKcs = KU70/80;DNA-PKcs (human;human, UniProt P12956;P13010;P78527 1-609;1-732;1-4128, |); assay: KU pull-down; DNA-PKcs associates with KU in a DNA-dependent manner; Footprinting: 25 mM HEPES pH 7.6, 80 mM KCl, 1.5 mM CaCl2, 1.5 mM MgCl2, 5% glycerol, 50 ug/ml BSA, 2 mM DTT, ice then 37 C (EMSA same buffer, 37 C); pull-down: 20 mM HEPES pH 7.6, 80 mM KCl, 5% glycerol, 0.01% NP-40, 1 mM DTT, 30 C; cryo-EM: 40 mM HEPES pH 7.6, 100 mM NaCl, 3 mM MgCl2, 4 C; conditions: protein: recombinant;native; tags: FLAG (KU70 N-terminal);; copies: 1;1;1; blunt

B1: PE3/PE4 telomeric duplex (dsDNA)
DNA 1: CGTCTATATTCTATTGTCTCTTAGGGTTAGGGTTAGGGTTAGGGTTAGGGTTAGGGTTAGGGTTAGGGTTAACATCAGTCTCACATAGATTAGCTCACGC
DNA 2: GCGTGAGCTAATCTATGTGAGACTGATGTTAACCCTAACCCTAACCCTAACCCTAACCCTAACCCTAACCCTAACCCTAAGAGACAATAGAATATAGACG
KU70/80;DNA-PKcs;TRF2
  binding result: binds
KU70/80;DNA-PKcs
  binding result: binds
